Experimental data as given in article PMC3714855.
Values joined by “and” are separate entries in the source; they are usually repeats but may differ in a detail not shown here. Equal values may be shown once.

Assays:
GluA2(R)(L811W) (rat) = test: native gel or EMSA
GluA2(R)(G802W) (rat) = test: native gel or EMSA
HA-GluA2(R)-ΔM4 (rat) = test: native gel or EMSA
[1] = biological target: wild-type GluA1 with a C-terminal GFP tag (rat); test: SEC
[2] = biological target: GluA2(Q)(A806W) with a C-terminal GFP tag (rat); test: SEC
[3] = biological target: GluA2(R)-ΔM4, untagged (rat); test: native gel or EMSA
[4] = biological target: GluA1(E809W) with a C-terminal GFP tag (rat); test: SEC
GluA2(R)(E813W) (rat) = test: native gel or EMSA
[5] = biological target: GluA1(L795W) with a C-terminal GFP tag (rat); test: SEC
[6] = biological target: wild-type GluA2(R), untagged (rat); test: native gel or EMSA
GluA2(R)(V795W) (rat) = test: native gel or EMSA
[7] = biological target: wild-type GluA2(Q) with a C-terminal GFP tag (rat); test: SEC
[8] = biological target: GluA2(Q)(E813W) with a C-terminal GFP tag (rat); test: SEC
[9] = biological target: HA-tagged wild-type GluA2(R) (rat); test: native gel or EMSA
[10] = biological target: GluA2(Q)(G802W) with a C-terminal GFP tag (rat); test: SEC
[11] = biological target: GluA2(Q)(L811W) with a C-terminal GFP tag (rat); test: SEC
[12] = biological target: GluA2(Q)(V795W) with a C-terminal GFP tag (rat); test: SEC

GluA2(R)(L811W) (receptor)
stoichiometry N (GluA2(R)(L811W) (rat)): 4 and 2

GluA2(R)(G802W) (receptor)
stoichiometry N (GluA2(R)(G802W) (rat)): 2

HA-GluA2(R)-ΔM4 (domain or fragment)
stoichiometry N (HA-GluA2(R)-ΔM4 (rat)): 2

wild-type GluA1 with a C-terminal GFP tag (receptor)
stoichiometry N [1]: 4

GluA2(Q)(A806W) with a C-terminal GFP tag (receptor)
stoichiometry N [2]: 2

GluA2(R)-ΔM4, untagged (domain or fragment)
stoichiometry N [3]: 2

GluA1(E809W) with a C-terminal GFP tag (receptor)
stoichiometry N [4]: 2

GluA2(R)(E813W) (receptor)
stoichiometry N (GluA2(R)(E813W) (rat)): 2

GluA1(L795W) with a C-terminal GFP tag (receptor)
stoichiometry N [5]: 2

wild-type GluA2(R), untagged (receptor)
stoichiometry N [6]: 4 and 2

GluA2(R)(V795W) (receptor)
stoichiometry N (GluA2(R)(V795W) (rat)): 2

wild-type GluA2(Q) with a C-terminal GFP tag (receptor)
stoichiometry N [7]: 4

GluA2(Q)(E813W) with a C-terminal GFP tag (receptor)
stoichiometry N [8]: 2

HA-tagged wild-type GluA2(R) (receptor)
stoichiometry N [9]: 4 and 2

GluA2(Q)(G802W) with a C-terminal GFP tag (receptor)
stoichiometry N [10]: 2

GluA2(Q)(L811W) with a C-terminal GFP tag (receptor)
stoichiometry N [11]: 4

GluA2(Q)(V795W) with a C-terminal GFP tag (receptor)
stoichiometry N [12]: 2
